Results reported in paper PMC8589321 (Science Advances, 2021).

Target: T1, complex I subunit ND1 (Yarrowia lipolytica) (Yarrowia lipolytica, UniProt Q9B6E8 1-341)
T1 sequence (looked up): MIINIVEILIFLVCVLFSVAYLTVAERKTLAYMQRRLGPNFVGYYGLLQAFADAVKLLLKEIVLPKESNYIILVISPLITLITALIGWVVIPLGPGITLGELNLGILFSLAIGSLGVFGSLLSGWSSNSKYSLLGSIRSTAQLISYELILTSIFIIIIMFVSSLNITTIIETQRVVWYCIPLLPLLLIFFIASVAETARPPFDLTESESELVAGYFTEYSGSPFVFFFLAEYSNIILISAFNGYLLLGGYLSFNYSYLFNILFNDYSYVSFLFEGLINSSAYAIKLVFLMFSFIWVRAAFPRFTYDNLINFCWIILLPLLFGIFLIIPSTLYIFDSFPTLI
Test: cryo-EM structure

B1: complex I subunit ND6 (Yarrowia lipolytica) (natural protein, UniProt Q9B6E9 1-185, looked up)
chain: MMYLTYYFIEITIFLAILCTIFIISAKNPMVSILYMIALFVIAAMYLYLIGLGIFSLLYIMIYIGAIAVLFLFIITLLDINSTELSVKSNIRDLPLVLISLIVLTISGLMIYSNDSILINKLLEAFGNDYNTIITQDWFNIENTTLLTTIGNVLLTNNAFILLVLAIVLLLGIIGPISITMKHKE
binding result: binds
